Source: patent US20250382384A1
Positions count from the first letter of the chain named. One block for each binder: values may come before it.

Tests used:
[1] = biological target: full-length cynomolgus MUC1 on stably transfected cells (cynomolgus); assay: FACS on HEK293/cyno MUC1
[2] = biological target: full-length cynomolgus MUC1 on stably transfected cells (cynomolgus); assay: FACS (iQue3) on HEK293-cynoMUC1 cells
[3] = biological target: cynomolgus MUC1 SEA domain protein (cynomolgus); assay: SPR (Biacore 2000), antibody captured, cynoMUC1 SEA analyte, 1:1 binding
[4] = biological target: cynomolgus MUC1 SEA domain protein (cynomolgus); assay: SPR, antibody captured, cynoMUC1 SEA analyte

full-length cynomolgus MUC1 on stably transfected cells (cynomolgus), sequence (chain, as listed by the source limits assumed, form in doubt): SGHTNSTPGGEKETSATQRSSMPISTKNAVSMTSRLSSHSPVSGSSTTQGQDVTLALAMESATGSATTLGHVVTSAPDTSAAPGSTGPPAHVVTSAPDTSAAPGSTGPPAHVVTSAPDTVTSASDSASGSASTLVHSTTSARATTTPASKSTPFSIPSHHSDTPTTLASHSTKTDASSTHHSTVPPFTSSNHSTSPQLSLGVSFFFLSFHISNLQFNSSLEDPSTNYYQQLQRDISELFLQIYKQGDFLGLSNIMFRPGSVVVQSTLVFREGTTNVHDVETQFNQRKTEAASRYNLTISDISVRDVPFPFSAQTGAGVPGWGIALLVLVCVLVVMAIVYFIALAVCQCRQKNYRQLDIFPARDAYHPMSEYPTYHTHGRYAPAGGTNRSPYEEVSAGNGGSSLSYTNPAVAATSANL

B2: BG138P-Bz0 (antibody, human IgG1, V domains shown)
VH: QVQLVQSGAEVKKPGASVKVSCKASGYTFTTYTMHWIKQAPGQGLEWIGYINPGSDYTHYNQKFKDKATLTADKSASTAYMELYSLRSEDTAVYYCARQGNYAAYYFDYWGQGTLVTVSS
VL: DIQMTQSPSSLSASVGDRVTITCRASGNIHNFLVWYQQKPGKSPKLLVYNAKTLTDGVPSRFSGSGSGTQYSLTISSLQPEDVATYYCQNFWNVPFTFGSGTKLEIK
Kd [3]: 6.59 nM

B3: BG138P-Bz12 (antibody, human IgG1, V domains shown)
VH: B2 VH
VL: B2 VL with V48I
Kd [3]: 6.56 nM

B4: BG138P-Bz10 (antibody, human IgG1, V domains shown)
VH: B2 VH with Y84S
VL: B2 VL
Kd [3]: 6.28 nM

B5: BG138P-Bz5 (antibody, human IgG1, V domains shown)
VH: B2 VH with K67R
VL: B2 VL
Kd [3]: 6.31 nM

B6: BG138P-Bz6 (antibody, human IgG1, V domains shown)
VH: B2 VH with A68V
VL: B2 VL
Kd [3]: 6.79 nM

B8: BG138P-Bz14 (antibody, human IgG1, V domains shown)
VH: B2 VH
VL: B2 VL with Y71F
Kd [3]: 24.4 nM

B9: BG138P-Bz2 (antibody, human IgG1, V domains shown)
VH: B2 VH with K38R
VL: B2 VL
Kd [3]: 6.96 nM

B10: BG138P-Bz13 (antibody, human IgG1, V domains shown)
VH: B2 VH
VL: B2 VL with Q70D
Kd [3]: 6.7 nM

B11: BG138P-Bz7 (antibody, human IgG1, V domains shown)
VH: B2 VH with L70I
VL: B2 VL
Kd [3]: 4.35 nM

B12: BG138P-Bz8 (antibody, human IgG1, V domains shown)
VH: B2 VH with A72R
VL: B2 VL
Kd [3]: 13.5 nM

B13: BG138P-Bz1 (antibody, human IgG1, V domains shown)
VH: B2 VH with I37V
VL: B2 VL
Kd [3]: 7.18 nM

B14: BG138P-Bz3 (antibody, human IgG1, V domains shown)
VH: B2 VH with G44R
VL: B2 VL
Kd [3]: 9.04 nM

B16: BG138P-Bz4 (antibody, human IgG1, V domains shown)
VH: B2 VH with I48M
VL: B2 VL
Kd [3]: 6.73 nM

B17: BG138P-Bz11 (antibody, human IgG1, V domains shown)
VH: B2 VH
VL: B2 VL with S43V
Kd [3]: 9.42 nM

B18: BG138P-Bz9 (antibody, human IgG1, V domains shown)
VH: B2 VH with K74T
VL: B2 VL
Kd [3]: 6.81 nM

The next lines start with the values.

EC50 [1]: 7.55 nM | EC50 (read off the curve) [2]: 4 nM
B1: chBG138P (antibody, V domains shown)
VH: QVQLLQSGAELARPGASVKMSCKASGYTFTTYTMHWIKQRPGQGLEWIGYINPGSDYTHYNQKFKDKATLTADKSSSTAYMHLYSLTSEDSAVYYCARQGNYAAYYFDYWGQGTTLTVSS
VL: B2 VL with S9A, D17E, R18T, P40Q, K45Q, T74K, S76K, V83F, A84G

Kd [3]: 5.6 nM
B7: BG138P-Bz16 (antibody, human IgG1, V domains shown)
VH: B2 VH
VL: B2 VL with S100Q

Kd [3]: 6.11 nM
B15: BG138P-Bz15 (antibody, human IgG1, V domains shown)
VH: B2 VH
VL: B2 VL with S72T

Kd [4]: 6.67 nM | EC50 (read off the curve) [2]: 3 nM
B19: huBG138P-Hz2 (antibody, V domains shown)
VH: B2 VH with I37V, K38R, G44R, I48M, K67R, A68V, L70I, K74T, Y84S
VL: B2 VL with V48I, D56S, S72T, S100Q

Kd [3]: 91.7 nM
B20: BG138P-Hz0 (antibody, human IgG1, V domains shown)
VH: B2 VH with I37V, K38R, G44R, I48M, K67R, A68V, L70I, A72R, K74T, Y84S
VL: B2 VL with S43V, V48I, Q70D, Y71F, S72T, S100Q

EC50 [1]: 41.8 nM
B21: chBG346P (antibody, V domains shown)
VH: EVQLQQSGAELVKPGASVKISCKASGYTFTNYWMNWVRQRPGQGLEWIGEIDPSDSYTNNNQKFKDKATLTVDKSSSTAYMQLSSLTSEDSAVYYCARGRRTGFAYWGQGTLVTVSS
VL: DIQMTQSPASLSVSVGETVTITCRASENIYSNLAWYQKKQGKSPQLLVYAATNLADGVPSRFSGSGSGTQYSLKINSLQSEDFGNYYCQHFWGTPYTFGGGTKLEIK

EC50 [1]: 12.7 nM
B22: chBG219P (antibody, V domains shown)
VH: EVQLVESGGGLVKPGGSLKLSCAASGFTFNDYIMSWVRQTPEKRLEWVATVSSGGDNTYYPDSVKGRFTISRDNAKNNLYLQMSSLRSEDTALYYCTRYGGLGAMDYWGQGTSVTVSS
VL: DIVMTQSPASLSASVGETVTITCRASGNIHNYLTWYQQKQGKSPQLLVYNAKTLADGVPSRFSGSGSGPQYSLKINSLQPEDFGSYYCQHFWSVPYTFGGGTRLEIK
